{
  "source": "patent US20210113687A1",
  "about": "“METHODS FOR TREATING INFLAMMATION” (NEW YORK UNIVERSITY, priority 2013, published 2021)",
  "molecules": {"B1": {"name": "IL-6: cytokine, 406-ML-005 R&D systems (protein, UniProt P08505 25-211, looked up)", "Interleukin-6": "FPTSQVRRGDFTEDTTPNRPVYTTSQVGGLITHVLWEIVEMRKELCNGNSDCMNNDDALAENNLKLPEIQRNDGCYQTGYNQEICLLKISSGLLEYHSYLEYMKNNLKDNKKDKARVLQRDTETLIHIFNQEVKDLHKIVLPTPISNALLTDKLESQKEWLRTKTIQFILKSLEEFLKVTLRSTRQT"}},
  "system": "BMDM",
  "assay": "qRT-PCR of BMDM (palmitate, cytokines, adipocyte conditioned media)",
  "type": "cell-based, mouse",
  "details": "direct addition of cytokine",
  "procedure": "Real-time Quantitative RT-PCR Analysis RNA (0.5-1 μg) was reverse transcribed using iScript™ cDNA Synthesis Kit (Biorad) and RT-PCR analysis was conducted using kapa SYBR green Supermix (kappa syber) and a Mastercycler Realplex (Eppendorf) the primers used are listed. Fold change in mRNA expression was calculated using the comparative cycle method (ΔΔCt).\nCell culture. Primary bone marrow derived macrophage (BMDM) was prepared by flushing the bone marrow of the tibia and femur of 6-8 week old C57/B6 mice. The cells were grown in DMEM supplemented with 15% L929-conditioned media, 10% FBS and 1% penicillin/streptomycin for 7 days. BMDM were stimulated 250 pM palmitate conjugated with BSA or BSA as a control for 24 hours, or TNFα (10 ng/ml, 410-MT-010; R&D systems), IL-6 (40 nglml, 406-ML-005; R&D systems) and IL-4 (1 Onglml, 404-ML-010; R&D systems) for 24 h. In some assays, differentiated BMDM were treated with conditioned media from 3T3-L1 adipocytes differentiated as described (Lin, et al., J Biol Chem, 2005; 280:4617-4626) and treated with 250 pM palmitate conjugated with BSA or BSA for 24 hours. In certain experiments, anti-TNFα (0.4 μg/ml, AF-410-NA, R&D systems) or anti-IL-6 (0.025 μg/ml, MAB406; R&D systems) blocking antibody or IgG control (Normal Goat IgG: AB-108-C, Rat IgG1: MAB005; R&D systems) was added to conditioned media. […]",
  "data": [
    {"molecule": "B1", "values": [
      {"measurement": "Ntn1 mRNA in BMDMs", "result": "increased Ntn1 mRNA"}
    ]}
  ]
}
